From the supplement of paper PMC10567573

B1: LMNB1 (parent)
chain: LYKEELEQTYHAKLENARLSSEMN

Variants of: B1
Assay: protein stability index of a GFP-peptide fusion (GPS, HEK-293T) (PSI 1-6); higher = more stable
Settings: c terminus: a fixed tail appended
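Note: lentivirally expressed fusions sorted by FACS into six bins by GFP to DsRed ratio, PSI derived from sequencing read proportions per bin multiplied by bin number.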

Protein stability index: each site, then its substitutions
E4: S 2.94 | P 3.68 | N 3.27 | V 2.97 | Y 2.08 | T 3.06 | W 1.55 | Q 2.56 | R 2.51 | M 2.18
N16: Y 1.83 | H 3.14 | S 2.42 | C 2.48 | V 2.3 | L 3.23 | I 2.35 | E 4 | T 2.96 | F 1.89 | K 2.98 | M 3.03 | P 3.33 | D 2.92 | G 2.27 | A 2.98 | Q 3.32 | R 2.92
S20: G 2.7 | V 2.88 | K 3.6 | R 3.26 | F 2.29 | D 2.71 | T 2.74 | E 2.04 | L 3.38 | I 2.81 | C 2.21 | W 1.82 | H 2.73 | M 2.58 | N 3.07 | Y 1.93 | P 3.18 | A 2.63 | Q 2.91
K13: H 3.08 | S 2.82 | F 2.25 | E 4.33 | V 2.8 | A 3.93 | R 2.55 | C 2.71 | G 4.57 | I 1.95 | P 4.37 | W 2.65 | T 2.06 | N 3.35 | M 2.48 | Q 3.06 | Y 1.84 | L 2.38 | D 4.59
Y10: I 4.17 | S 4.49 | H 4.8 | M 4.27 | T 4.66 | E 5.55 | V 4.49 | N 4.67 | R 4.48 | A 4.25 | C 4.16 | K 5.14 | Q 4.79 | L 4.23 | D 4.97 | F 3.67 | G 4.52 | P 4.4 | W 2.63
L19: A 3.67 | R 3.79 | G 3.88 | E 4.75 | H 3.31 | K 3.35 | V 2.88 | I 2.39 | M 3.15 | Q 3.92 | P 2.74 | S 3.08 | Y 2.36 | F 2.68 | D 4.25 | T 3.6 | N 3.76 | C 3.36 | W 1.8
R18: V 2.1 | Q 3.14 | H 3.1 | A 3.26 | D 3.7 | P 3.62 | I 2.27 | L 2.81 | G 3.35 | C 2.6 | M 2.76 | S 2.92 | N 3.83 | K 3.31 | T 2.73 | W 1.08 | F 2.17 | E 3.72 | Y 2.24
Q8: W 1.71 | T 3.21 | I 2.52 | R 2.81 | F 2.09 | H 2.08 | D 3.46 | C 2.86 | P 3.84 | A 2.19 | M 2.5 | S 2.56 | L 2.38 | E 3.15 | K 2.49 | V 2.09 | Y 2.45 | N 2.8
E7: L 3.17 | R 3.44 | G 3.23 | P 3.35 | I 2.84 | T 3.26 | N 3.38 | C 2.11 | F 1.83 | Y 2.38 | A 2.47 | M 2.07 | K 2.77 | W 2.34 | H 2.53 | D 3.52 | V 3.05 | Q 3.4 | S 2.72
E22: G 2.81 | A 2.63 | H 2.22 | D 2.62 | I 2.74 | F 1.93 | C 2.83
E15: Q 2.58 | F 2.38 | K 2.98 | R 2.76 | A 2.61 | P 3.31 | N 2.71 | G 2.65 | I 2.44 | C 2.06 | L 2.9 | M 1.94 | D 3.48 | H 2.38 | W 1.94 | T 2.25 | Y 2.47 | V 2.01 | S 2.33
E5: T 1.83 | Q 1.54 | I 1.82 | A 2.28 | W 1.37 | L 3.89 | Y 3.37 | K 3.09 | S 2.4 | F 2.28 | R 1.76 | P 3.1 | N 2.53 | C 2.32 | V 2.77 | D 3.01 | H 2.27 | M 2.42 | G 2.46
L14: R 4.78 | T 4.34 | Q 4.56 | I 3.46 | K 5.64 | D 4.74 | A 4.49 | V 3.49 | P 5 | N 4.54 | E 4.64 | Y 3.51 | W 3.11 | G 4.36 | C 4.28 | M 3.09 | F 2.58 | H 4.59 | S 4.66
L6: R 4.38 | M 4.03 | V 4.34 | H 4.26 | E 4.49 | F 3.21 | W 4.74 | Q 5.03 | I 3.46 | Y 4.48 | S 4.7 | C 3.8 | A 4.29 | G 3.81 | K 4.4 | T 4.75 | D 4.72 | P 4.39 | N 4.57
A12: T 4.08 | Y 3.52 | H 3.71 | V 3.48 | G 3.44 | I 2.87 | Q 4.25 | M 2.36 | L 3.17 | S 4.29 | W 2.65 | E 4.72 | N 4.38 | P 3.73 | K 4.32 | D 4.61 | C 2.09
S21: Y 2.1 | N 2.55 | V 2.26 | T 2.83 | I 2.35 | A 2.68 | M 2.72 | G 2.51 | F 2.42 | C 2.02 | P 2.37 | D 3.48 | R 2.25 | W 1.82 | L 1.78 | H 2.59 | K 2.91 | Q 2.55 | E 3.18
H11: N 3.14 | W 3.08 | I 3.12 | S 4.06 | P 3.91 | Y 2.48 | C 3.73 | V 3.53 | R 2.88 | F 3.29 | L 2.84 | T 4.16 | A 3.81 | Q 4.24 | D 4.95 | E 4.71 | M 3.45 | K 2.4
A17: F 1.82 | P 2.66 | R 3.71 | M 1.98 | N 3.86 | Q 3.72 | D 4.14 | Y 2.2 | T 2.61 | C 1.82 | S 3.61 | K 3.9 | H 3.52 | W 1.78 | E 4.26 | V 1.41 | L 2.44 | G 4.01 | I 1.97
T9: M 2.65 | S 3.92 | R 3.64 | I 2.6 | N 3.88 | A 3.59 | F 2.57 | Y 3.31 | L 2.16 | V 2.61 | D 4.61 | E 4.24 | K 3.1 | C 3.12 | P 4.23 | W 3.65 | H 2.7 | Q 3.77
